According to PMC6321783 (Cellular signalling, 2018):

Molecular target: T1, HA-ASK1 (Apoptosis Signal-regulating Kinase 1) (UniProt Q99683 1-1374)
T1 sequence (looked up): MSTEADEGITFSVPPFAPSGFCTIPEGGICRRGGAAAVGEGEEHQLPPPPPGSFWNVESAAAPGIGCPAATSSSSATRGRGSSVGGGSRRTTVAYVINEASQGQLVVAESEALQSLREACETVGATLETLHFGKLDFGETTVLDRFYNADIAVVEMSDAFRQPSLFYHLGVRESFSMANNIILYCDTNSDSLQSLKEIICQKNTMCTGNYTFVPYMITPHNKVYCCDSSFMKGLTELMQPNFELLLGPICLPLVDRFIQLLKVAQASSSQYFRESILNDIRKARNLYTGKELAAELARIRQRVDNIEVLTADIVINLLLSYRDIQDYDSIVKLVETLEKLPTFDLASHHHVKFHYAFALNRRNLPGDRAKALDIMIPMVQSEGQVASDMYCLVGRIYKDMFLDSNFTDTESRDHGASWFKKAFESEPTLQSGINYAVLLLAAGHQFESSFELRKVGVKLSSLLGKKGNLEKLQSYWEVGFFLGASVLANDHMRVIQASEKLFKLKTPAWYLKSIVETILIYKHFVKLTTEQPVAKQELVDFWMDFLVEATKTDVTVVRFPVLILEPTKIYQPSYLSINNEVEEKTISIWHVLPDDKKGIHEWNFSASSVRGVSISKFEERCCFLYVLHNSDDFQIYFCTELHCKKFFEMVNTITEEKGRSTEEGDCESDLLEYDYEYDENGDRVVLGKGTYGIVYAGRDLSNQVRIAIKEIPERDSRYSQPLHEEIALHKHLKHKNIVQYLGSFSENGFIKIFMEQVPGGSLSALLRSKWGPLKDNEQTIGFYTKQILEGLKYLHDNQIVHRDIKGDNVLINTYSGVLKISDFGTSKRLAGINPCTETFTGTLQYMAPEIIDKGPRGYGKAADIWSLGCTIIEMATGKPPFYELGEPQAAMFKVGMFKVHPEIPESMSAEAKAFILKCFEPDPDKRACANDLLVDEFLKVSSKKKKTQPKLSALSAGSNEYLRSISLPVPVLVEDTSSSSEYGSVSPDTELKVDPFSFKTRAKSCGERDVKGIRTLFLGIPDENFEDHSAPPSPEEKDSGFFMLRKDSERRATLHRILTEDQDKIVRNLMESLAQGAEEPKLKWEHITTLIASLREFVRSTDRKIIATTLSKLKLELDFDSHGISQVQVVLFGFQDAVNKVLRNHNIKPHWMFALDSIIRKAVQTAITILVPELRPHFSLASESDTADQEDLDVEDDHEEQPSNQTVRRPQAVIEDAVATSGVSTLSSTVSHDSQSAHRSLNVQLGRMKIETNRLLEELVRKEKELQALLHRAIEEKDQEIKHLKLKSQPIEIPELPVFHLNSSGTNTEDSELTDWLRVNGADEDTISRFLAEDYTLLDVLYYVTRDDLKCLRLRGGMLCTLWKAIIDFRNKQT
Test: co-IP

binding relative to WT arrestin-3: ~0.33 of WT
B1: arrestin-3-(1–366) fragment (expressed in COS7 cells) (domain or fragment, bovine, UniProt P32120-2 1-366, looked up)
chain: MGEKPGTRVFKKSSPNCKLTVYLGKRDFVDHLDKVDPVDGVVLVDPDYLKDRKVFVTLTCAFRYGREDLDVLGLSFRKDLFIANYQAFPPTPNPPRPPTRLQERLLRKLGQHAHPFFFTIPQNLPCSVTLQPGPEDTGKACGVDFEIRAFCAKSLEEKSHKRNSVRLVIRKVQFAPEKPGPQPSAETTRHFLMSDRSLHLEASLDKELYYHGEPLNVNVHVTNNSTKTVKKIKVSVRQYADICLFSTAQYKCPVAQVEQDDQVSPSSTFCKVYTITPLLSNNREKRGLALDGKLKHEDTNLASSTIVKEGANKEVLGILVSYRVKVKLVVSRGGDVSVELPFVLMHPKPHDHIALPRPQSAAPETD
